Results taken from ChEMBL document CHEMBL1908105, “UDP-glucuronosyltransferases and clinical drug-drug interactions” (Pharmacol Ther, 2005).

Columns and labels:
not read [1] = substrate: CC(C)c1cccc(C(C)C)c1O; experiment: not read
not read [2] = substrate: O=C1Nc2ccc(Cl)cc2C(c2ccccc2)=N[C@@H]1O; experiment: not read
[3] = substrate: CC(=O)Nc1ccc(O)cc1; experiment: (§1) Drug glucuronidation reaction catalyzed by human recombinant UGT1A9
[4] = substrate: CCC[S+]([O-])CCCN(CC)CC(O)COc1ccc(C#N)cc1; experiment: as §1
[5] = substrate: CCN(CC)C(=O)/C(C#N)=C/c1cc(O)c(O)c([N+](=O)[O-])c1; experiment: as §1
[6] = substrate: CCc1c2c(nc3ccc(O)cc13)-c1cc3c(c(=O)n1C2)COC(=O)[C@]3(O)CC; experiment: as §1
[7] = substrate: CN1CC[C@H](c2c(O)cc(O)c3c(=O)cc(-c4ccccc4Cl)oc23)[C@H](O)C1; experiment: as §1
[8] = substrate: CN1CC[C@]23c4c5ccc(O[C@@H]6O[C@H](C(=O)O)[C@@H](O)[C@H](O)[C@H]6O)c4O[C@H]2[C@@H](O)C=C[C@H]3[C@H]1C5; experiment: as §1
[9] = substrate: COc1c(C)c2c(c(O)c1C/C=C(\C)CCC(=O)O)C(=O)OC2; experiment: as §1
[10] = substrate: Cc1ccc(C(=O)c2cc(O)c(O)c([N+](=O)[O-])c2)cc1; experiment: as §1
[11] = substrate: O=C(c1ccc(OCCN2CCCCC2)cc1)c1c(-c2ccc(O)cc2)sc2cc(O[C@@H]3O[C@H](C(=O)O)[C@@H](O)[C@H](O)[C@H]3O)ccc12; experiment: as §1
[12] = substrate: O=C(c1ccc(OCCN2CCCCC2)cc1)c1c(-c2ccc(O[C@H]3O[C@H](C(=O)O)[C@@H](O)[C@H](O)[C@H]3O)cc2)sc2cc(O)ccc12; experiment: as §1
[13] = substrate: CN1CC[C@]23c4c5ccc(O[C@@H]6O[C@H](C(=O)O)[C@@H](O)[C@H](O)[C@H]6O)c4O[C@H]2[C@@H](O)C=C[C@H]3[C@H]1C5; experiment: (§2) Drug glucuronidation reaction catalyzed by human recombinant UGT1A10
[14] = substrate: O=C(c1ccc(OCCN2CCCCC2)cc1)c1c(-c2ccc(O[C@H]3O[C@H](C(=O)O)[C@@H](O)[C@H](O)[C@H]3O)cc2)sc2cc(O)ccc12; experiment: as §2
not read [15] = substrate: Cc1c(Cl)cccc1Nc1ncccc1C(=O)O; experiment: not read
not read [16] = substrate: O=C1Nc2ccc(Cl)cc2C(c2ccccc2)=N[C@H]1O; experiment: not read
[17] = substrate: C=CCN1CC[C@]23c4c5ccc(O)c4O[C@H]2[C@@H](O)C=C[C@H]3[C@H]1C5; experiment: (§3) Drug glucuronidation reaction catalyzed by human recombinant UGT2B7
[18] = substrate: C=CC[C@@H]1/C=C(\C)C[C@H](C)C[C@H](OC)[C@H]2O[C@@](O)(C(=O)C(=O)N3CCCC[C@H]3C(=O)O[C@H](/C(C)=C/[C@@H]3CC[C@@H](O)[C@H](OC)C3)[C@H](C)[C@@H](O)CC1=O)[C@H](C)C[C@@H]2OC; experiment: as §3
[19] = substrate: CC(C(=O)O)c1cccc(C(=O)c2ccccc2)c1; experiment: as §3
[20] = substrate: CC(C)Cc1ccc(C(C)C(=O)O)cc1; experiment: as §3
[21] = substrate: CCC[S+]([O-])CCCN(CC)CC(O)COc1ccc(C#N)cc1; experiment: as §3
[22] = substrate: CO[C@]12CC[C@@]3(C[C@@H]1[C@](C)(O)C(C)(C)C)[C@H]1Cc4ccc(O)c5c4[C@@]3(CCN1CC1CC1)[C@H]2O5; experiment: as §3
[23] = substrate: COc1ccc(Cl)cc1[C@]1(F)C(=O)Nc2cc(C(F)(F)F)ccc21; experiment: as §3
[24] = substrate: COc1cccc2c1C(=O)c1c(O)c3c(c(O)c1C2=O)C[C@@](O)(C(=O)CO)C[C@@H]3O[C@H]1C[C@H](N)[C@@H](O)[C@H](C)O1; experiment: as §3
[25] = substrate: CS(=O)(=O)c1ccc(C2=C(c3ccccc3)C(=O)OC2O)cc1; experiment: as §3
[26] = substrate: NC(=O)N1c2ccccc2C=Cc2ccccc21; experiment: as §3
[27] = substrate: O=C1[C@H](CC[C@H](O)c2ccc(F)cc2)[C@@H](c2ccc(O)cc2)N1c1ccc(F)cc1; experiment: as §3

B1: UDP-glucuronosyltransferase 1A9 (Homo sapiens) (protein)
chain: MACTGWTSPLPLCVCLLLTCGFAEAGKLLVVPMDGSHWFTMRSVVEKLILRGHEVVVVMPEVSWQLGRSLNCTVKTYSTSYTLEDLDREFKAFAHAQWKAQVRSIYSLLMGSYNDIFDLFFSNCRSLFKDKKLVEYLKESSFDAVFLDPFDNCGLIVAKYFSLPSVVFARGILCHYLEEGAQCPAPLSYVPRILLGFSDAMTFKERVRNHIMHLEEHLLCHRFFKNALEIASEILQTPVTEYDLYSHTSIWLLRTDFVLDYPKPVMPNMIFIGGINCHQGKPLPMEFEAYINASGEHGIVVFSLGSMVSEIPEKKAMAIADALGKIPQTVLWRYTGTRPSNLANNTILVKWLPQNDLLGHPMTRAFITHAGSHGVYESICNGVPMVMMPLFGDQMDNAKRMETKGAGVTLNVLEMTSEDLENALKAVINDKSYKENIMRLSSLHKDRPVEPLDLAVFWVEFVMRHKGAPHLRPAAHDLTWYQYHSLDVIGFLLAVVLTVAFITFKCCAYGYRKCLGKKGRVKKAHKSKTH
Km (not read [1]): 37 µM | Vmax (not read [1]): 0.0028 µmol/min/mg | Km (not read [2]): 12 µM | Vmax (not read [2]): 3e-06 µmol/min/mg | Km [3]: 20900 µM | Vmax [3]: 0.0063 µmol/min/mg | Km [4]: 1060 µM | Vmax [4]: 9.2e-05 µmol/min/mg | Km [5]: 10 µM | Vmax [5]: 0.0018 µmol/min/mg | Km [6]: 13 µM | Vmax [6]: 2e-05 µmol/min/mg | Km [7]: 37 µM | Vmax [7]: 5.6e-05 µmol/min/mg | Km [8]: 37400 µM | Vmax [8]: 3.2e-05 µmol/min/mg | Km [9]: 291 µM | Vmax [9]: 0.00838 µmol/min/mg | Km [10]: 66 µM | Vmax [10]: 0.00048 µmol/min/mg | Km [11]: 25 µM | Vmax [11]: 0.00032 µmol/min/mg | Km [12]: 13 µM | Vmax [12]: 0.00025 µmol/min/mg

B2: UDP-glucuronosyltransferase 1A10 (Homo sapiens) (protein)
chain: MARAGWTSPVPLCVCLLLTCGFAEAGKLLVVPMDGSHWFTMQSVVEKLILRGHEVVVVMPEVSWQLERSLNCTVKTYSTSYTLEDQNREFMVFAHAQWKAQAQSIFSLLMSSSSGFLDLFFSHCRSLFNDRKLVEYLKESSFDAVFLDPFDTCGLIVAKYFSLPSVVFTRGIFCHHLEEGAQCPAPLSYVPNDLLGFSDAMTFKERVWNHIVHLEDHLFCQYLFRNALEIASEILQTPVTAYDLYSHTSIWLLRTDFVLDYPKPVMPNMIFIGGINCHQGKPLPMEFEAYINASGEHGIVVFSLGSMVSEIPEKKAMAIADALGKIPQTVLWRYTGTRPSNLANNTILVKWLPQNDLLGHPMTRAFITHAGSHGVYESICNGVPMVMMPLFGDQMDNAKRMETKGAGVTLNVLEMTSEDLENALKAVINDKSYKENIMRLSSLHKDRPVEPLDLAVFWVEFVMRHKGAPHLRPAAHDLTWYQYHSLDVIGFLLAVVLTVAFITFKCCAYGYRKCLGKKGRVKKAHKSKTH
Km [13]: 12600 µM | Vmax [13]: 0.000629 µmol/min/mg | Km [14]: 5 µM | Vmax [14]: 0.00055 µmol/min/mg

B3: UDP-glucuronosyltransferase 2B7 (Homo sapiens) (protein)
chain: MSVKWTSVILLIQLSFCFSSGNCGKVLVWAAEYSHWMNIKTILDELIQRGHEVTVLASSASILFDPNNSSALKIEIYPTSLTKTELENFIMQQIKRWSDLPKDTFWLYFSQVQEIMSIFGDITRKFCKDVVSNKKFMKKVQESRFDVIFADAIFPCSELLAELFNIPFVYSLSFSPGYTFEKHSGGFIFPPSYVPVVMSELTDQMTFMERVKNMIYVLYFDFWFEIFDMKKWDQFYSEVLGRPTTLSETMGKADVWLIRNSWNFQFPYPLLPNVDFVGGLHCKPAKPLPKEMEDFVQSSGENGVVVFSLGSMVSNMTEERANVIASALAQIPQKVLWRFDGNKPDTLGLNTRLYKWIPQNDLLGHPKTRAFITHGGANGIYEAIYHGIPMVGIPLFADQPDNIAHMKARGAAVRVDFNTMSSTDLLNALKRVINDPSYKENVMKLSRIQHDQPVKPLDRAVFWIEFVMRHKGAKHLRVAAHDLTWFQYHSLDVIGFLLVCVATVIFIVTKCCLFCFWKFARKAKKGKND
Km (not read [15]): 64 µM | Vmax (not read [15]): 0.00022 µmol/min/mg | Km (not read [2]): 333 µM | Vmax (not read [2]): 7e-06 µmol/min/mg | Km (not read [16]): 203 µM | Vmax (not read [16]): 2e-06 µmol/min/mg | Km [17]: 260 µM | Vmax [17]: 0.000461 µmol/min/mg | Km [18]: 449 µM | Vmax [18]: 0.000588 µmol/min/mg | Km [19]: 112 µM | Vmax [19]: 0.00045 µmol/min/mg | Km [20]: 55 µM | Vmax [20]: 0.000477 µmol/min/mg | Km [21]: 970 µM | Vmax [21]: 2.1e-05 µmol/min/mg | Km [22]: 24 µM | Vmax [22]: 2.6e-05 µmol/min/mg | Km [23]: 14 µM | Vmax [23]: 0.00029 µmol/min/mg | Km [24]: 149 µM | Vmax [24]: 9.9e-05 µmol/min/mg | Km [25]: 42 µM | Vmax [25]: 4.7e-05 µmol/min/mg | Km [26]: 214 µM | Vmax [26]: 1e-06 µmol/min/mg | Km [27]: 21 µM | Vmax [27]: 5e-05 µmol/min/mg
